What was measured:
[1] = target: Dm RNase H1 (amino acids 17-333), bacterially expressed (Drosophila melanogaster)
RNase H1 D252N [2] = target: T1, RNase H1 D252N (Drosophila melanogaster, UniProt A1Z769 17-333, D252N); experiment: EMSA; 1 or 10 uM protein; BLI: 30 mM Tris-HCl pH 8.0, 100 mM KCl, 10% glycerol, 10 mM EDTA, 2 mM DTT, 400 ug/ml BSA, 30 C; EMSA: 25 mM Tris-HCl pH 8.0, 25 mM KCl, 1 mM DTT, 10 mM EDTA, 20 ug/ml BSA, room temperature, 30 min; conditions: protein: recombinant; tags: C-terminal 6xHis (+2 vector residues); label: 5' 32P; single strand
T1 sequence: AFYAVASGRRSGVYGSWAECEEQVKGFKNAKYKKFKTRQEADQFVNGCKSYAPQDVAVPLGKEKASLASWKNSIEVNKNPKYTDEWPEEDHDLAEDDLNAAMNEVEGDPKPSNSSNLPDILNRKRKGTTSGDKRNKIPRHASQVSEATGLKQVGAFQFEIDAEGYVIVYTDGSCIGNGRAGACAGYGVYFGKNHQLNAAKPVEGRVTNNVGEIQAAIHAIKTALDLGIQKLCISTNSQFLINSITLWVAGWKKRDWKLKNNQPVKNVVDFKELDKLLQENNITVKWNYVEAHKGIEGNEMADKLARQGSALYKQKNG

RNase H1 D252N [3] = target: T1, RNase H1 D252N; experiment: EMSA; BLI: 30 mM Tris-HCl pH 8.0, 100 mM KCl, 10% glycerol, 10 mM EDTA, 2 mM DTT, 400 ug/ml BSA, 30 C; EMSA: 25 mM Tris-HCl pH 8.0, 25 mM KCl, 1 mM DTT, 10 mM EDTA, 20 ug/ml BSA, room temperature, 30 min; conditions: protein: recombinant, tags: C-terminal 6xHis (+2 vector residues), blunt
RNase H1 ΔII/III D252N = target: T2, RNase H1 ΔII/III D252N (Drosophila melanogaster, UniProt A1Z769 17-333, D252N;del66-141); experiment: as above; conditions: protein: recombinant, tags: C-terminal 6xHis, blunt
T2 sequence: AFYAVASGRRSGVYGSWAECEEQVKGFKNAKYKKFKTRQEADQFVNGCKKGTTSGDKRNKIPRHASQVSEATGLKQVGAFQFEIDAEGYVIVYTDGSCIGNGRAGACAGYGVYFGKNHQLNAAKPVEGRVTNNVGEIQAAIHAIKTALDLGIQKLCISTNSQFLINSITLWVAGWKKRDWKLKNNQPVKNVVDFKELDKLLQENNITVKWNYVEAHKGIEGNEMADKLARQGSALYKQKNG

RNase H1 ΔII-V [4] = target: T3, RNase H1 ΔII-V (Drosophila melanogaster, UniProt A1Z769 17-65); experiment: BLI; BLI: 30 mM Tris-HCl pH 8.0, 100 mM KCl, 10% glycerol, 10 mM EDTA, 2 mM DTT, 400 ug/ml BSA, 30 C; EMSA: 25 mM Tris-HCl pH 8.0, 25 mM KCl, 1 mM DTT, 10 mM EDTA, 20 ug/ml BSA, room temperature, 30 min; conditions: protein: recombinant, tags: C-terminal 6xHis, blunt
T3 chain: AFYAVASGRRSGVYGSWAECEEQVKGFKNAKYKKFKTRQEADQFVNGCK

RNase H1 ΔIII-V [5] = target: T4, RNase H1 ΔIII-V (Drosophila melanogaster, UniProt A1Z769 17-87); experiment: as above; conditions: protein: recombinant, tags: C-terminal 6xHis, blunt
T4 sequence: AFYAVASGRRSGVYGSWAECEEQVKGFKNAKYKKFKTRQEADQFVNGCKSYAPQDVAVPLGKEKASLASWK

RNase H1 ΔIV/V [6] = target: T5, RNase H1 ΔIV/V (Drosophila melanogaster, UniProt A1Z769 17-142); experiment: as above; conditions: protein: recombinant, tags: C-terminal 6xHis, blunt
T5 sequence: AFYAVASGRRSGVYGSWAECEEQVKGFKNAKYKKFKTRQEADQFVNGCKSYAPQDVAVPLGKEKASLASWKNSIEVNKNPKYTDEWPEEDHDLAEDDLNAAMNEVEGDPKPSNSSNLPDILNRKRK

RNase H1 D252N [7] = target: T1, RNase H1 D252N; experiment: EMSA; second shift at high protein; BLI: 30 mM Tris-HCl pH 8.0, 100 mM KCl, 10% glycerol, 10 mM EDTA, 2 mM DTT, 400 ug/ml BSA, 30 C; EMSA: 25 mM Tris-HCl pH 8.0, 25 mM KCl, 1 mM DTT, 10 mM EDTA, 20 ug/ml BSA, room temperature, 30 min; conditions: protein: recombinant; tags: C-terminal 6xHis (+2 vector residues); blunt
RNase H1 ΔI-III D252N = target: T6, RNase H1 ΔI-III D252N (Drosophila melanogaster, UniProt A1Z769 142-333, D252N); experiment: EMSA; no supershift; BLI: 30 mM Tris-HCl pH 8.0, 100 mM KCl, 10% glycerol, 10 mM EDTA, 2 mM DTT, 400 ug/ml BSA, 30 C; EMSA: 25 mM Tris-HCl pH 8.0, 25 mM KCl, 1 mM DTT, 10 mM EDTA, 20 ug/ml BSA, room temperature, 30 min; conditions: protein: recombinant; tags: C-terminal 6xHis; blunt
T6 sequence: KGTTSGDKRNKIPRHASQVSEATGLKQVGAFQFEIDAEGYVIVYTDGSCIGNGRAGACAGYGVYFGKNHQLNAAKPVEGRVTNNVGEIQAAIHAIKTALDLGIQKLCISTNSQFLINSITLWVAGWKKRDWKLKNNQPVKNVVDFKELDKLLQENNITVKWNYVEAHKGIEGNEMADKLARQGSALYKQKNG

RNase H1 ΔI/II D252N = target: T7, RNase H1 ΔI/II D252N (Drosophila melanogaster, UniProt A1Z769 87-333, D252N); experiment: as above; conditions: protein: recombinant; tags: C-terminal 6xHis; blunt
T7 sequence: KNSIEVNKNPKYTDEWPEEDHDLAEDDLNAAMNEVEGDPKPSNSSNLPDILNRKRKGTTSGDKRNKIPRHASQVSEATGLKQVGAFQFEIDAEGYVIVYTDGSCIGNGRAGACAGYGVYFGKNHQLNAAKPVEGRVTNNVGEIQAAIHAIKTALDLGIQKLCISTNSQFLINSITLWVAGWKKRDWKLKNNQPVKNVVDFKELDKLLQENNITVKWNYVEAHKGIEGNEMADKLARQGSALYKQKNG

RNase H1 ΔII-V [8] = target: T3, RNase H1 ΔII-V; experiment: EMSA; supershift at high protein; BLI: 30 mM Tris-HCl pH 8.0, 100 mM KCl, 10% glycerol, 10 mM EDTA, 2 mM DTT, 400 ug/ml BSA, 30 C; EMSA: 25 mM Tris-HCl pH 8.0, 25 mM KCl, 1 mM DTT, 10 mM EDTA, 20 ug/ml BSA, room temperature, 30 min; conditions: protein: recombinant; tags: C-terminal 6xHis; blunt
RNase H1 ΔIII-V [9] = target: T4, RNase H1 ΔIII-V; experiment: as above; conditions: protein: recombinant; tags: C-terminal 6xHis; blunt
RNase H1 ΔIV/V [10] = target: T5, RNase H1 ΔIV/V; experiment: as above; conditions: protein: recombinant; tags: C-terminal 6xHis; blunt

B1: Drosophila mitochondrial single-stranded DNA-binding protein, purified (natural protein)
chain: ATTTTAAAPAKVEKTVNTVTILGRVGADPQLRGSQEHPVVTFSVATHTNYKYENGDWAQRTDWHRVVVFKPNLRDTVLEYLKKGQRTMVQGKITYGEITDQQGNQKTSTSIIADDVLFFRDANN
How did the nuclease activity of 0.1 nM Dm RNase H1 on radiolabelled 30-bp RNA/DNA hybrid pre-incubated with mtSSB (0-500 nM), without ssDNA; densitometry [1] turn out when B1 was run?
Its nuclease activity of 0.1 nM Dm RNase H1 on radiolabelled 30-bp RNA/DNA hybrid pre-incubated with mtSSB (0-500 nM), without ssDNA; densitometry is 55%.

Does AAGTAGGGCACGCTATAGTTAGTCTTCGCG (ssDNA) [30-nt ssDNA] bind (RNase H1 D252N [2])?
Result: no binding

Does CGCGAAGACUAACUAUAGCGUGCCCUACUU (ssRNA) [30-nt ssRNA] bind (RNase H1 D252N [2])?
Result: no binding

B2: 30-bp dsDNA (dsDNA)
DNA 1: AAGTAGGGCACGCTATAGTTAGTCTTCGCG
DNA 2: CGCGAAGACTAACTATAGCGTGCCCTACTT
Does B2 bind (RNase H1 D252N [3]; label: 5' biotin on S3 for BLI)?
Result: binds

Does B2 bind (RNase H1 ΔII/III D252N; label: 5' biotin on S3 for BLI)?
Result: binds

Does B2 bind (RNase H1 ΔII-V [4]; label: 5' biotin on S3 for BLI)?
Result: no binding

Does B2 bind (RNase H1 ΔIII-V [5]; label: 5' biotin on S3 for BLI)?
Result: no binding

Does B2 bind (RNase H1 ΔIV/V [6]; label: 5' biotin on S3 for BLI)?
Result: no binding

B3: 30-bp RNA/DNA hybrid (EMSA) (DNA:RNA)
RNA: CGCGAAGACUAACUAUAGCGUGCCCUACUU
DNA: AAGTAGGGCACGCTATAGTTAGTCTTCGCG
Does B3 bind (RNase H1 D252N [7])?
Result: binds

Does B3 bind (RNase H1 ΔI-III D252N)?
Result: binds

Does B3 bind (RNase H1 ΔI/II D252N)?
Result: binds

Does B3 bind (RNase H1 ΔII/III D252N)?
Result: binds

Does B3 bind (RNase H1 ΔII-V [8])?
Result: binds

Does B3 bind (RNase H1 ΔIII-V [9])?
Result: binds

Does B3 bind (RNase H1 ΔIV/V [10])?
Result: binds

B4: 30-bp dsRNA (dsRNA)
RNA 1: AAGUAGGGCACGCUAUAGUUAGUCUUCGCG
RNA 2: CGCGAAGACUAACUAUAGCGUGCCCUACUU
Does B4 bind (RNase H1 D252N [3]; label: 5' biotin on S2 for BLI)?
Result: binds

Does B4 bind (RNase H1 ΔII/III D252N; label: 5' biotin on S2 for BLI)?
Result: binds

Does B4 bind (RNase H1 ΔII-V [4]; label: 5' biotin on S2 for BLI)?
Result: no binding

Does B4 bind (RNase H1 ΔIII-V [5]; label: 5' biotin on S2 for BLI)?
Result: no binding

Does B4 bind (RNase H1 ΔIV/V [6]; label: 5' biotin on S2 for BLI)?
Result: no binding

Reference: article PMC7657459, “A second hybrid-binding domain modulates the activity of Drosophila ribonuclease H1”
